Legend:
[1] = biological target: human glucagon-like peptide 1 receptor (human, UniProt P43220 24-463); assay: cell-based or functional assay
human glucagon receptor = human glucagon receptor (human, UniProt P47871 26-477); assay: cell-based or functional assay

human glucagon-like peptide 1 receptor, sequence (P43220 24-463): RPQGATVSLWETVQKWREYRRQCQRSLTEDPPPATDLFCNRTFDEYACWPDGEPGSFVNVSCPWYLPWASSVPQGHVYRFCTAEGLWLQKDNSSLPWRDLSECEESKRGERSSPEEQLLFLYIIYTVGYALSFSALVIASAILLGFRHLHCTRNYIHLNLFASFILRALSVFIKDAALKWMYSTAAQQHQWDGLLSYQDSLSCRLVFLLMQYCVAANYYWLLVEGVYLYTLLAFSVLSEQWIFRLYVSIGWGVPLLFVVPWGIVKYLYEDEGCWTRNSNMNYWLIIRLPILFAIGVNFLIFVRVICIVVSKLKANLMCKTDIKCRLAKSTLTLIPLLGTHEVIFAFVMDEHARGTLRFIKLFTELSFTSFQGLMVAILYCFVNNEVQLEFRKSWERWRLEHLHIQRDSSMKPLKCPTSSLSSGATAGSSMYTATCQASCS

Row | Binder | GLP-1R EC50 (cAMP formation in HEK293 cells expressing human GLP-1-R) [1] [nmol] | GLUR EC50 (cAMP formation in HEK293 cells expressing human Glucagon-R) (human glucagon receptor) [nmol]
1 | H-HSQGTFTSDYSKYLDERRAKDFIQWLLSA-NH2 [L006-0084] | 0.07 | 0.13
2 | H-HSQGTFTSDYSKYLDSRRAQDFIEWLLSA-NH2 [L006-0090] | 0.15 | 0.22
3 | H-HSQGTFTSDYSKYLDDRRARDFIDWLLSA-NH2 [L006-0093] | 0.07 | 0.1
4 | H-HSQGTFTSDYSKYLDKRRAEDFIKWLLSA-NH2 [L006-0094] | 0.16 | 0.25
5 | H-HSQGTFTSDYSKYLDERRAKDFIRWLLSA-NH2 [L006-0128] | 0.16 | 0.22
6 | H-HSQGTFTSDYSKYLDERRAKDFIEWLLRA-NH2 [L006-0138] | 0.29 | 0.38
7 | H-HSQGTFTSDYSKYLDSRRAKDFIEWLLSA-NH2 [L006-0081] | 0.14 | 0.23
8 | H-HSQGTFTSDYSKYLDERAAKDFIEWLLSA-NH2 [L006-0108] | 0.53 | 0.81
9 | H-HSQGTFTSDYSKYLDERRAKDFIDWLLSA-NH2 [L006-0129] | 0.2 | 0.24
10 | H-HSQGTFTSDYSKYLDERRAKDFIEWLLAA-NH2 [L006-0136] | 0.22 | 0.33
11 | H-HSQGTFTSDYSKYLDERRAQDFIEWLLSA-NH2 [L006-0082] | 0.09 | –

Reference: patent publication US20110286981A1 (ZEALAND PHARMA A S, published 2011)
